The values below come from the DeepSol protein solubility set.

The data set is described as follows: soluble on expression in E. coli; label from the status in PepcDB or PDB records.
Consider “MSLKLTIGVSYPTANSPFWNAYTRFIDEGSHQLGVYINAVSAEEDEQKQLSDVETLINQGIDGLIVTPQSTSIAPTLLRIATQANIPVVVVDRYPGYAPGQNKNADYVAFLGPNNEKAGSGIAEALMAGGGSKFLALGGMPGNSVAQGRKAGLESALTAVGHRLVQFQYAGDSEDKGLAAAENMLQAHPAGDANAIWCFNDKLCQGAIKAVYNANREKEFIFGGMDLTPQAIAAIENGLYTVSLGAHWLEGGFGLAILYRKIHGQDPAERMVKLDLLKVDKSNVAKFKARYEGHHHHHH”, for which the “soluble on expression in E. coli” value was “not soluble”.
The result for “MPCRLTRLFGIEFPIIQAPMAGVQGSALAIAVSEAGGLGSLPCAMLSLEALEAELTAIRSQTAKPINVNFFCHREPVAQAAKQAAWLEQLAPYFAEFNLDPNAQPAGAQRTPYSKAQAEVLAKFKPEVVSFHFGLPDEELLLEIKSWGSKVISTATTVEEALWLEARGADAIIAQGLEAGGHRGHFLSEDLTEQLGTFSLLPQIIAAVEIPVIAAGGIVDATTVRAAMTMGASAVQVGTAYLLCPECNTSAIHREALQSDAAQHTALTNLFSGRPARGIVNRFMAEMGPMNEAVPDFPLASSAVAGLRTAAERLGFWDFSPLWCGQNASGCRAIPAADLTRSFVLSLPSSCVEPQEKSGAAALEHHHHHH” reads “not soluble”; that for “MEIGDLNEVNELVSRLNNENVKIAEVNDYIQTLSAGIEEMNVQAQQLSDFAVESSSMAEKGKEISDNVALKVSKISETSREMSNAISILAEYSKKIDEIVYVISSIASQTNLLALNASIEAARAGEAGRGFAVVAENVRELADRSKKAAEQIRDLIKEMQENTNRVIEAIQENVKVTEEVKEAIQELIAAFDDIARRANETATMVKELSEGIDEQANSVQMLVERIDSISKDVSDNLNFATQLTETVKGSIEKLEVIKNKVSQLKDELDKTLEKLEV”, “soluble”.
The result for “MSLDESKGFIEDSKLSVKTRMLYFSRDFRNNAPGSQSRVEETGLGFLGTFESGFTQGTVGFGVDAIGMLGLKLDSGKGRAGTGLFPTGADGRSQDDYSEGGGAVKMRISNTVLKFGDQFTALPVLATDDSRLLPEVAEGGLITSNEIDDLTVHAGHFTALNAQAQTYHDSLNLTEANVFGGTYAITDSLSTSVYYSRIEDHFRKWYGNINWALPISDKQGLVFDFNIYDTKSIGNNLTGAYVSKSDGTNELDNIAASLSAAYNVGAHTFTLAYQKVSGDGDYAYGVDGGGTVFLANSVARSDFNAEDEKSWQARYDLNFAEFGVPGLTFMTRYVSGTGATTRTTDSGKEWERDIDVKYVMQSGPAKDLSFRVRQATYRSGEGHHHHHH” reads “soluble”.
As for “MGSDKIHHHHHHMFTPRGFKFAGVHCKIKRKRKDLGIIFSEVPCVAAGVFTTNVVKAAPVIYDMEILKKNPNGIKAVVVNSGVANACTGEQGMINARRMAEKTAEELGVPVESVLVSSTGVIGVQLPMDKVENGIEEAARVLSNDPLPFAEAIMTTDTKVKMHSTKVMIDGKEITVLGIAKGSGMIHPNMATMLSFITTDAKISEEALKKLLKLSVDDSYNMIDVDGDTSTNDMVIVLANGLAGNTTIQPETDGFWKLYEAVHEVNQVLAEKIVEDGEGATKVMEVHVINAPDIKSARLIARSIVSSNLVKTAIYGEDANWGRVIAAAGYSGATFDPEKLDLFFESEAGRIKVAENGQGVSFDEEEAKKILSEKKIRIILDMKQGKETAKAWGCDLTEKYVEINGRYRT”, the “soluble on expression in E. coli” value is “not soluble”.
Turning to “MGSDKIHHHHHHMDQDDASPISSGVEGLDYVLRGGYAKYRSHLVEGRPGSGKTTLGLQFLIKGAAAGEKCLYITLSESRRELQSVAVRHGFSLDGIEILELVPPELSLDPSQLQTLVHSSDLELGETVQAALAEIERMKPDRVVFDSLSEIRLLSQGSLRYRRQVLALKSFFLLNNATVLLLDDLTAEHDDLNLHSISHGVIRMEQLSPIYGGERRRLRIIKMRGVQIRGGFHDFVIRPGGVMVFPRLVASEHEMAEHGTPATGNGSVDTLVGGGLDRGTSTLLMGPSGVGKSTIACSYCHSALKRGEHVLVLLFDETKRIFLARASGLGMDLGPFADNGNLLLEQIDPAELSPGELSSRIQSAVERSSARIVVIDSLTGYLNAMSEEQHLVLQMHEILTYLNQKGVVTILLLANHGLIGQMSAPVDMTYLCDSVMLLRFFESGGRLRRAISVVKKRVGPHEDTIREFKISATGLAVGEPLEEFRGILTGVPTYEGKQGNLLQDKAS”, the “soluble on expression in E. coli” value is on record as “not soluble”.
On to “TEKTKAVETTDVALAIDTLVQNGLKALDEMRQLNQEQVDYIVAKASVAALDAHGELALHAVEETGRGVFEDKATKNLFACEHVVNNMRHTKTVGVIEEDDVTGLTLIAEPVGVVCGITPTTNPTSTAIFKSLISLKTRNPIIFAFHPSAQESSAHAARIVRDAAIAAGAPENCVQWIEQPSIDATNALMNHDGIATILATGGNAMVKAAYSCGKPALGVGAGNVPAYVEKSANIRQAAHDIVMSKSFDNGMVCASE”, for which the “soluble on expression in E. coli” value is recorded as “not soluble”.
As for “MGSDKIHHHHHHMKKLENKKSSSIKLETVRRKTINLSETEFIKIDFLTHWETLPIVLKPNIDYLDLADWIESSQNFIETKLLKYGAILFRGFNVDTATTFERVCLALCSDLFNENGEHPRKSVSGKVYTPVSYPADKKLLWHNENSFNYSWPRKILFGCLQPAQQGGETPIVDSRIVFQLIDPKIRERFIDKKVMYIRNYGDRLGLNWETVFQTSDRLEVEAACTKAAIDFEWKTGNRLRTIAVRPAVVKHPQTKEMSWFNQAQHWHPACLDSQTRESLLSMFKQEDLPRNCYYGDGSLIEDSVLEEICGVYQQLEVSFPWKRGDLLLLDNLLTAHSRNSYMGERQLLVAMGEMANFEDV”, the “soluble on expression in E. coli” value is given as “not soluble”.
Regarding “PPESDGFSDVRKVGYLRKPKSMHKRFFVLRAASEAGGPARLEYYENEKKWRHKSSAPKRSIPLESCFNINKRADSKNKHLVALYTRDEHFAIAADSEAEQDSWYQALLQLHNRAKGHHDGAAALGAGGGGGSCSGSSGLGEAGEDLSYGDVPPGPAFKEVWQVILKPKGLGQTKNLIGIYRLCLTSKTISFVKLNSEAAAVVLQLMNIRRCGHSENFFFIEVGRSAVTGPGEFWMQVDDSVVAQNMHETILEAMRAMSDEFRPR”, the “soluble on expression in E. coli” value was “soluble”.
The result for “MAHHHHHHSLRGIIKRLNDDGFGILYNKILVPFSAPGDEVEVLKTEKQKRAKIATEWRLLRSSPIRVGARCKVFGKCGGCILQHINYNSQLEFKKEKLRKILGREVEIIPSPRIFGHRNRIDLAVTVNAIGFREKGKWWSVVDVEECPVFGKTSKKAIERLREYIEEEKVSTWKIREDSGFLRYMVLREGKFTGEIMVNFVTKEGELPDPTSYFDFADSIYWSINRSKSDVSYGDIEKYWGKEFIMEELDGVKYLIHPNSFFQTNSYQAVNLVKTVEKFVEGEKVVDMYSGVGTFGVYLAKKGMKVVGFDSNAFAIEMANKNAEINNVEAEFFVASDREVDIKGFDTVIVDPPRAGLHPKLVKRLNDHGPETIVYVSCNPKTFKVNIEQLNNYIIEELIALDMFPHTPHIELVGKLRRLVEG” reads “soluble”.
On to “MGSDKIHHHHHHVAVKAYLKRELRNLQSLAPAVRTAKFSLYNFGTRSAGLFVEPEFKLLAHLRPVKLAIDIGGNWGQSVLALQRYAAPERIVTFEPNPELYRRLSARFRSDPSIQVENVGLGDAAGQFDLHIPLYRNFVYDGLASLNKDEAAQWLNPRTMARFDPSKLTIQSHTVRVVKLDDYNLVPDIIKIDVQGLEDAVARGGIKTIDRAKPAMIVEAPSASFVQMMADCGLRPYTWNGTRLVDAADGSNVMFLSDEKLRKLVKVRPKPEKPE”, for which the “soluble on expression in E. coli” value was “not soluble”.
In the case of “MSNYTIIDLNQQPHLIPSAAQWFSQKWQIPAEAYQASMQEMLTSENHVPHWWVCLNKQQDIVAGVGVIDNDFHNRADLTPNLCALYVEPTFRHQGLAGILLTTVGDFLANSGFKKLYLLTDHTTFYERYDWEFLTMVTTEEQSCARIYQKQLRQ”, the “soluble on expression in E. coli” value is recorded as “not soluble”.
For “MNNQQAAIASARSRMAAGGQPQGATPGQPDQNFDYMFKLLIIGNSSVGKTSFLFRYCDDSFTSAFVSTVGIDFKVKTVFRGDKRVKLQIWDTAGQERYRTITTAYYRGAMGFILMYDITNEESFNSVQDWCTQIKTYSWENAQVVLVGNKCDMDSERVVSMDRGRQLADQLGLEFFETSAKENINVKAVFEKLVEIICDKMAESLDKDPQQQPKGQKLEANPTQKPAQQQCNC”, the “soluble on expression in E. coli” value was “not soluble”.
As to “MGFEDGFYTILHLAEGQHPNSKIPGGMYASSKDGKDVPVTAEPLGPQSKIRWWIARDPQAGDDMYTITEFRIDNSIPGQWSRSPVETEVPVYLYDRIKAEETGYTCAWRIQPADHGADGVYHIVGNVRIGSTDWADLREEYGEPQVYMKPVPVIPNVYIPRWFILGYEE”, the “soluble on expression in E. coli” value is listed as “soluble”.
Turning to “MSLKIRSITATPINLRLEAPYGWVFGELDGFSQTIVEVETEDGLIGLGEAPTPAAAAIINDVLAERLVGRDAFDIAGAEHVCLPYWTGVQSINDRTRIMAFGAIEMALWDLRGKAWNQPLYQLLGGAVRKDIPFTDYFSLRGDGPKVKGETTPEEVADYCVELHETHGTTFFEGKFSTEDPKVSLRMVELIRAKLGDEAMIRIDSNQAYSLATARRLARPLEELGVRNWEDPVATIEEMRQLRQHCSIPFSTHNIDIARAMDLKVPDAFVGNPTAHGGIGRLLRFVGACEHAGVDFWCYSGDSGIGSAAYLHLCAALGWIREPNQSLFRMQPMDITEEGPFSPRNNVVRVPEGPGLGVTLSRKNLAACHRDFAENGPCNKYHDPAKPGTYRRLPLNEGHHHHHH”, the “soluble on expression in E. coli” value is “soluble”.
Regarding “MSLDLKEIVQAGAFDLHIHTTASDGEYSPTAIVKKAKEIGLRTIAITDHDTLDGIEEAVIAGKRHGINVIPAIELTTKYKGTNVDILGYNVKASEKLQAILVQLKKHREGRAMQIIEKFNDIGFTITLDEVKQFSEDGVIARPHIAKAIVKKGYVLDYQTVFDEYLADGKPCAIDKMILTPEEGIKLIHEAGGKAILAHPVYLEDTLVRELLALDFDGIEVWHRNHDETDQEKYKMLATEFALIKTGGSDFHTDEHSLGQFGWKADEEGHHHHHH”, the “soluble on expression in E. coli” value is “soluble”.
For “SNAMDFHIRKATNSDAEAIQHVATTSWHHTYQDLIPSDVQDDFLKRFYNVETLHNRISATPFAVLEQADKVIGFANFIELEKGKSELAAFYLLPEVTQRGLGTELLEVGMTLFHVPLPMFVNVEKGNETAIHFYKAKGFVQVEEFTEDFYGYPLETIRFNLNH”, the “soluble on expression in E. coli” value was “soluble”.
Take “KGSYDLIFGDKNTKNYYAKFAKDHQTHLYQKIKESKDEQFRFVETQETTNNLGN”: the “soluble on expression in E. coli” value is given as “soluble”.
With “MRNICFVACMLFCLASASGKTVKNHPFVSIADSILDNVLNLYQTEDGLLTETYPVNPDQKITYLAGGAQQNGTLKASFLWPYSGMMSGCVAMYQATGDKKYKTILEKRILPGLEQYWDGERLPACYQSYPVKYGQHGRYYDDNIWIALDYCDYYRLTKKADYLKKAIALYEYIYSGWSDELGGGIFWCEQQKEAKHTCSNAPSTVLGVKLYRLTKDKKYLNKAKETYAWTRKHLCDPDDFLYWDNINLKGKVSKDKYAYNSGQMIQAGVLLYEETGDKDYLRDAQKTAAGTDAFFRSKADKKDPSVKVHKDMSWFNVILFRGFKALEKIDHNPTYVRAMAENALHAWRNYRDANGLLGRDWSGHNEEPYKWLLDNACLIELFAEIEKLEHHHHHH”, the “soluble on expression in E. coli” value was “not soluble”.
With “MAQMYFYYSAMNAGKSTTLLQSSFNYQERGMTPVIFTAALDDRYGVGKVSSRIGLQSDAHLFRPDTNLYQEIAALHEVEKRHCIL”, the “soluble on expression in E. coli” value is on record as “not soluble”.
